# Experimental data: IntAct's records for PubMed 31412244
# B1: Autophagy-related protein 2 homolog A (Homo sapiens), Q2TAZ0 (parent)
# chain: MSRWLWPWSNCVKERVCRYLLHHYLGHFFQEHLSLDQLSLDLYKGSVALRDIHLEIWSVNEVLESMESPLELVEGFVGSIEVAVPWAALLTDHCTVRVSGLQLTLQPRRGPAPGAADSQSWASCMTTSLQLAQECLRDGLPEPSEPPQPLEGLEMFAQTIETVLRRIKVTFLDTVVRVEHSPGDGERGVAVEVRVQRLEYCDEAVRDPSQAPPVDVHQPPAFLHKLLQLAGVRLHYEELPAQEEPPEPPLQIGSCSGYMELMVKLKQNEAFPGPKLEVAGQLGSLHLLLTPRQLQQLQELLSAVSLTDHEGLADKLNKSRPLGAEDLWLIEQDLNQQLQAGAVAEPLSPDPLTNPLLNLDNTDLFFSMAGLTSSVASALSELSLSDVDLASSVRSDMASRRLSAQAHPAGKMAPNPLLDTMRPDSLLKMTLGGVTLTLLQTSAPSSGPPDLATHFFTEFDATKDGPFGSRDFHHLRPRFQRACPCSHVRLTGTAVQLSWELRTGSRGRRTTSMEVHFGQLEVLECLWPRGTSEPEYTEILTFPGTLGSQASARPCAHLRHTQILRRVPKSRPRRSVACHCHSELALDLANFQADVELGALDRLAALLRLATVPAEPPAGLLTEPLPAMEQQTVFRLSAPRATLRLRFPIADLRPEPDPWAGQAVRAEQLRLELSEPQFRSELSSGPGPPVPTHLELTCSDLHGIYEDGGKPPVPCLRVSKALDPKSTGRKYFLPQVVVTVNPQSSSTQWEVAPEKGEELELSVESPCELREPEPSPFSSKRTMYETEEMVIPGDPEEMRTFQSRTLALSRCSLEVILPSVHIFLPSKEVYESIYNRINNDLLMWEPADLLPTPDPAAQPSGFPGPSGFWHDSFKMCKSAFKLANCFDLTPDSDSDDEDAHFFSVGASGGPQAAAPEAPSLHLQSTFSTLVTVLKGRITALCETKDEGGKRLEAVHGELVLDMEHGTLFSVSQYCGQPGLGYFCLEAEKATLYHRAAVDDYPLPSHLDLPSFAPPAQLAPTIYPSEEGVTERGASGRKGQGRGPHMLSTAVRIHLDPHKNVKEFLVTLRLHKATLRHYMALPEQSWHSQLLEFLDVLDDPVLGYLPPTVITILHTHLFSCSVDYRPLYLPVRVLITAETFTLSSNIIMDTSTFLLRFILDDSALYLSDKCEVETLDLRRDYVCVLDVDLLELVIKTWKGSTEGKLSQPLFELRCSNNVVHVHSCADSCALLVNLLQYVMSTGDLHPPPRPPSPTEIAGQKLSESPASLPSCPPVETALINQRDLADALLDTERSLRELAQPSGGHLPQASPISVYLFPGERSGAPPPSPPVGGPAGSLGSCSEEKEDEREEEGDGDTLDSDEFCILDAPGLGIPPRDGEPVVTQLHPGPIVVRDGYFSRPIGSTDLLRAPAHFPVPSTRVVLREVSLVWHLYGGRDFGPHPGHRARTGLSGPRSSPSRCSGPNRPQNSWRTQGGSGRQHHVLMEIQLSKVSFQHEVYPAEPATGPAAPSQELEERPLSRQVFIVQELEVRDRLASSQINKFLYLHTSERMPRRAHSNMLTIKALHVAPTTNLGGPECCLRVSLMPLRLNVDQDALFFLKDFFTSLVAGINPVVPGETSAEARPETRAQPSSPLEGQAEGVETTGSQEAPGGGHSPSPPDQQPIYFREFRFTSEVPIWLDYHGKHVTMDQVGTFAGLLIGLAQLNCSELKLKRLCCRHGLLGVDKVLGYALNEWLQDIRKNQLPGLLGGVGPMHSVVQLFQGFRDLLWLPIEQYRKDGRLMRGLQRGAASFGSSTASAALELSNRLVQAIQATAETVYDILSPAAPVSRSLQDKRSARRLRRGQQPADLREGVAKAYDTVREGILDTAQTICDVASRGHEQKGLTGAVGGVIRQLPPTVVKPLILATEATSSLLGGMRNQIVPDAHKDHALKWRSDSAQD
# partner: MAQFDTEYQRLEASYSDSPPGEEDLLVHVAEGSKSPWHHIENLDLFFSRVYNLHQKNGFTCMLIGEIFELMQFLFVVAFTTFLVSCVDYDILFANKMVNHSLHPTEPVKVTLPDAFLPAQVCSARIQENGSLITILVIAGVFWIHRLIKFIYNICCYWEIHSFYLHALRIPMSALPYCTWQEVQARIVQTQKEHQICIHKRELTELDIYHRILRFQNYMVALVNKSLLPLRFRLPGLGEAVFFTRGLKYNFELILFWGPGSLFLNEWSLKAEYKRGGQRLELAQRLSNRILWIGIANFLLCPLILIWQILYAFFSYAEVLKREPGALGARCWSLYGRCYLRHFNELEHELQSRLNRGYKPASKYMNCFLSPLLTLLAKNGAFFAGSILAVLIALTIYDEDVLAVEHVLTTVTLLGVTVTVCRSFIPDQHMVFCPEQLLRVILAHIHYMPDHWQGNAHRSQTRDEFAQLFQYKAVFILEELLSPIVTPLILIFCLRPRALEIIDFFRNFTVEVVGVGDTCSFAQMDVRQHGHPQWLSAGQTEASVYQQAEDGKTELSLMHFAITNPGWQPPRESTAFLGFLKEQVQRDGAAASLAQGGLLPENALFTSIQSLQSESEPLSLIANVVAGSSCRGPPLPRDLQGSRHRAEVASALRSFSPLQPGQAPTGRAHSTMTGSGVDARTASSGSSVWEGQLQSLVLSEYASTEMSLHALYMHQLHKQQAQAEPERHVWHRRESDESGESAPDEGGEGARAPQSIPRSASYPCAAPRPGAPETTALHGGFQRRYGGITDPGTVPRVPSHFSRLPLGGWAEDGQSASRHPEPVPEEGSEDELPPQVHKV
# B2: Autophagy-related protein 2 homolog A (Homo sapiens), Q2TAZ0 (parent)
# chain: B1 chain
# partner: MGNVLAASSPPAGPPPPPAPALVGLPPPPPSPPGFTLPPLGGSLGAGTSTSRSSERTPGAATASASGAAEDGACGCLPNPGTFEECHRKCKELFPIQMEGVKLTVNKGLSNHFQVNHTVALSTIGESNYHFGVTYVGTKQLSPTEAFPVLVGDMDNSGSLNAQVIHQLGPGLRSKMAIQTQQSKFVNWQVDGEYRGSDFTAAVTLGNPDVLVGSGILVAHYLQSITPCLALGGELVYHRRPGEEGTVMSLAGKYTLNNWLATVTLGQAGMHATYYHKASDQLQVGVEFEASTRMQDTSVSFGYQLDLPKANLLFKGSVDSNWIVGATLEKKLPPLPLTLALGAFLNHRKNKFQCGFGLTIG
# Variants of: B1
# Settings: with atg9a_human ATG9A
row,Variant,effect of a mutation on the interaction
1,Y1395A;F1396A;S1397A,disrupting interaction strength

# Variants of: B2
# Settings: with tom40_human TOMM40, O96008
row,Variant,effect of a mutation on the interaction
1,R1777A;R1780A;R1784A;L1798A;L1800A;L1804A,decreasing interaction strength
2,R1777A;R1780A;R1784A,decreasing interaction strength
3,L1798A;L1800A;L1804A,disrupting interaction strength
